Experiments:
human BMP-5 = target: T1, human BMP-5 (human, UniProt P22003 317-454, limits assumed); assay: co-immunoprecipitation with anti-myc 9E10 beads, western blot
T1 construct: Bought from R&D Systems
T1 sequence (looked up): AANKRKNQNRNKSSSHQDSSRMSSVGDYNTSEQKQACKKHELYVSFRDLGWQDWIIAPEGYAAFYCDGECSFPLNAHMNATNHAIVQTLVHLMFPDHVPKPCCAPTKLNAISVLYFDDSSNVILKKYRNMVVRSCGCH
Procedure: (§1) Human DCR5-myc3 (1 ml of COS7 cell-derived serum-free conditioned media described supra) was co-incubated with human BMP-2 (1 μg/ml), or human BMP-4 (0.5 μg/1 ml) (R&D Systems), or human BMP-5 ([…]) (R&D Systems), or mouse Nodal (also known as mBMP-16; provided as ³⁵S-mouse Nodal expressed in X. laevis oocytes), or human BMP-11 (also known as human GDF-11; provided as ³⁵S-human BMP-11 expressed in X. laevis oocytes), in the absence or in the presence of human noggin protein hNGAB2 (described in published PCT application publication no. WO 99/03996, published Jan. 28, 1999, and incorporated in its entirety herein by reference), 2 to 5 μg/ml. The formation of a stable complex between human DCR5-myc3 and the different BMP family members was determined by immunoprecipitating human DCR5-myc3 and associated proteins using the anti-myc monoclonal antibody (9E10; 1 μg/ml) bound to Protein A Ultralink (Pierce). The binding reaction was carried out in the serum-free conditioned media containing 20 mM Tris pH 7.6, 150 mM NaCl, 0.1% Tween 20 (TBST), and 1 mg/ml bovine serum albumin (BSA). Binding was allowed to proceed for 1 hour at 25° C. in a reaction volume of 1.1 ml, with continuous mixing to keep the Protein A-Ultralink (Pierce) in suspension. […]

mouse Nodal = target: T2, mouse Nodal (mouse, UniProt P43021 245-354, limits assumed, 35S-labelled); assay: co-immunoprecipitation with anti-myc 9E10 beads, 35S-labelled Nodal
T2 construct: Provided as 35S-labelled protein expressed in X. laevis oocytes; also called mBMP-16; 35S-mouse Nodal
T2 sequence (looked up): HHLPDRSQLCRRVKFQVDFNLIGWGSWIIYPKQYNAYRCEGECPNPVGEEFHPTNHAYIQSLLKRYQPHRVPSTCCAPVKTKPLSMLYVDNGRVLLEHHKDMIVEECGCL
Procedure: as §1

human BMP-11 = target: T3, human BMP-11 (human, UniProt O95390 299-407, limits assumed, 35S-labelled); assay: co-immunoprecipitation with anti-myc 9E10 beads, 35S-labelled BMP-11
T3 construct: Provided as 35S-labelled protein expressed in X. laevis oocytes; also called human GDF-11; GDF-11
T3 sequence (looked up): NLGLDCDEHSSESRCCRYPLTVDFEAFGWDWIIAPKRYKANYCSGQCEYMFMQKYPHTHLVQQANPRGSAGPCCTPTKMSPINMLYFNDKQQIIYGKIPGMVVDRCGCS
Procedure: as §1

B1: human DCR5-myc3 (other)
chain: RKNRPAGAIPSPYKDGSSNNSERWQHQIKEVLASSQEALVVTERKYLKSDWCKTQPLRQTVSEEGCRSRTILNRFCYGQCNSFYIPRHVKKEEESFQSCAFCKPQRVTSVLVELECPGLDPPFRLKKIQKVKQCRCMSVNLSDSDKQTGEQKLISEEDLGGEQKLISEEDLGGEQKLISEEDLGP
notes: Used as serum-free conditioned medium of transiently transfected COS7 cells; also called Human DCR5-myc3 protein; hDCR-5
B1: no binding (tested: 1 g/ml (so in the source)) (human BMP-5); no binding (mouse Nodal); no binding (human BMP-11).
